Measured values taken from PMC12130793, “A conserved aspartate residue in [4Fe-4S]-containing HypD is required for [NiFe]-cofactor biosynthesis and for efficient interaction of the HypCD scaffold complex with HypE” (Metallomics: Integrated Biometal Science, 2025).
Substitutions are numbered along the chain they refer to. Names may count otherwise.

B1: HypD (native, untagged) (natural protein, E. coli, UniProt P24192 1-373, looked up)
chain: MRFVDEYRAPEQVMQLIEHLRERASHLSYTAERPLRIMEVCGGHTHAIFKFGLDQLLPENVEFIHGPGCPVCVLPMGRIDTCVEIASHPEVIFCTFGDAMRVPGKQGSLLQAKARGADVRIVYSPMDALKLAQENPTRKVVFFGLGFETTMPTTAITLQQAKARDVQNFYFFCQHITLIPTLRSLLEQPDNGIDAFLAPGHVSMVIGTDAYNFIASDFHRPLVVAGFEPLDLLQGVVMLVQQKIAAHSKVENQYRRVVPDAGNLLAQQAIADVFCVNGDSEWRGLGVIESSGVHLTPDYQRFDAEAHFRPAPQQVCDDPRARCGEVLTGKCKPHQCPLFGNTCNPQTAFGALMVSSEGACAAWYQYRQQESEA
notes: Carries a [4Fe-4S] cluster; also called native HypD; WT HypD; source: E. coli BL21(DE3), co-expressed with HypC-Strep (phypDC) or with HypE, HypF and HybG-Strep (phypDEF-hybG); co-purified anaerobically
B2: HypD_(D98A) (untagged) (natural protein, E. coli, UniProt P24192 1-373, looked up)
chain: B1 chain with D98A
notes: HypD of E. coli with the D98A exchange, without a tag; source: co-purified anaerobically
B3: HypC bearing a C-terminal StrepII-tag (natural protein, E. coli, UniProt P0AAM3 1-90, looked up)
chain: MCIGVPGQIRTIDGNQAKVDVCGIQRDVDLTLVGSCDENGQPRVGQWVLVHVGFAMSVINEAEARDTLDALQNMFDVEPDVGALLYGEEK
notes: HypC, hydrogenase maturation factor of E. coli; native HypC; also called HypC-Strep; Strep-tagged HypC; source: E. coli BL21(DE3) transformed with phypDC or phypD_(D98A)hypC, purified anaerobically (Strep tag); not shown: StrepII, C-terminal, kept

Legend:
[1] = biological target: B3; assay: native MS; anaerobically purified HypC-Strep/HypD complexes buffer-exchanged into 500 mM ammonium acetate, pH 6.8, about 10 uM; nano-ESI Q-TOF; MS/MS with collision-induced dissociation (90 V) of the +12 charge state of the heterodimer; details: both partners purified
[2] = biological target: B2; assay: pull-down; co-purification from BL21(DE3) cells by the StrepII tag (on HypD, HypC or HybG) under anoxic conditions; 5 ug of isolated protein on SDS-PAGE, immunoblot with anti-HypD or anti-HypE antiserum (1:1000); details: partners not purified
[3] = biological target: B1; assay: as above; details: partners not purified

stoichiometry N [1]	binding result [2]	binding result [3]	Binder
1 ratio HypC:HypD			B1
1 ratio HypC:HypD			B2
	binds	binds	B3
